Conditions: Homo sapiens, pH 7.5, Fluorescence, Sodium phosphate 20mM, transition: 2, whole UniProt chain shown

B1: wild type, Q5NV88 (protein)
chain: NFMLTQPHSVSESPGKTVTISCTRSSGSIASNYVQWYQQRPGSSPTTVIYEDNQRPSGVPDRFSGSIDSSSNSASLTISGLKTEDEADYYCQSYDSSN
25 °C, GdnHCl
  denaturant midpoint (higher = more stable): 1.41 M
  unfolding free energy: 5.1 kcal/mol
Thermal
  Tm: 49.9 °C
  unfolding enthalpy (calorimetric): 86.2 kcal/mol
  unfolding free energy: 5.2 kcal/mol

Source: FireProtDB (doi:10.1016/j.jmb.2009.11.038)
